Reference: IntAct's records for PubMed 17290217

B1: Phosphatidylinositol 4-phosphate 5-kinase type-1 gamma (Mus musculus), O70161 (parent)
chain: MELEVPDEAESAEAGAVTAEAAWSAESGAAAGMTQKKAGLAEAPLVTGQPGPGHGKKLGHRGVDASGETTYKKTTSSTLKGAIQLGIGYTVGNLSSKPERDVLMQDFYVVESIFFPSEGSNLTPAHHFQDFRFKTYAPVAFRYFRELFGIRPDDYLYSLCNEPLIELSNPGASGSVFYVTSDDEFIIKTVMHKEAEFLQKLLPGYYMNLNQNPRTLLPKFYGLYCVQSGGKNIRVVVMNNVLPRVVKMHLKFDLKGSTYKRRASKKEKEKSLPTYKDLDFMQDMPEGLLLDSDTFGALVKTLQRDCLVLESFKIMDYSLLLGVHNIDQQERERQAEGAQSKADEKRPVAQKALYSTAMESIQGGAARGEAIETDDTMGGIPAVNGRGERLLLHIGIIDILQSYRFIKKLEHTWKALVHDGDTVSVHRPSFYAERFFKFMSSTVFRKSSSLKSSPSKKGRGALLAVKPLGPTAAFSASQIPSEREDVQYDLRGARSYPTLEDEGRPDLLPCTPPSFEEATTASIATTLSSTSLSIPERSPSDTSEQPRYRRRTQSSGQDGRPQEEPHAEDLQKITVQVEPVCGVGVVPKEEGAGVEVPPCGASAAASVEIDAASQASEPASQASDEEDAPSTDIYFPTDERSWVYSPLHYSARPASDGESDT

Variants of: B1
Settings: with Ap2b1, Q9DBG3-1
Sequence of Ap2b1, Q9DBG3-1 (Q9DBG3 whole entry): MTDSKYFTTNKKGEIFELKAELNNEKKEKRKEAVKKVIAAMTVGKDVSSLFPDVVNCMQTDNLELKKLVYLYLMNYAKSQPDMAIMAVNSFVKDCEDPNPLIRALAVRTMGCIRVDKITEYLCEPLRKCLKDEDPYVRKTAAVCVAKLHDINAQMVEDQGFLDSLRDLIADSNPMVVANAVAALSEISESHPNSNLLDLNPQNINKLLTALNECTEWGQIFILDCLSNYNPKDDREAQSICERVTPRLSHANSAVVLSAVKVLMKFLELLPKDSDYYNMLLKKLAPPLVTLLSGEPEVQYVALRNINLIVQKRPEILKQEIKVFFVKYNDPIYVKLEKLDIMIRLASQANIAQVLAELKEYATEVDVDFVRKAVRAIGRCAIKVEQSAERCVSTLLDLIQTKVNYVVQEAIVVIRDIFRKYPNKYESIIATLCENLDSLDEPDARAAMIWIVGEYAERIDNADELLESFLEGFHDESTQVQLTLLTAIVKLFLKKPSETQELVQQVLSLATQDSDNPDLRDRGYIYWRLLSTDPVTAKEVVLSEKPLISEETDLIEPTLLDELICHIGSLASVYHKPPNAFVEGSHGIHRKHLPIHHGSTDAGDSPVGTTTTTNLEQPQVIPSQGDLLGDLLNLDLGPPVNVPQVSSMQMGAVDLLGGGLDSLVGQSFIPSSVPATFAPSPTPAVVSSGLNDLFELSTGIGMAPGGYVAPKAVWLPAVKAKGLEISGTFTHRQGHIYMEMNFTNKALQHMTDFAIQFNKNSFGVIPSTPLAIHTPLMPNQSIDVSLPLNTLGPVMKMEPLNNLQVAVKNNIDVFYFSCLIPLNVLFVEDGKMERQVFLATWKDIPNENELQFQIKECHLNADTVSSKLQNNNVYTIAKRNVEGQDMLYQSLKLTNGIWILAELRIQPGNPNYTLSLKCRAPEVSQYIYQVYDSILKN
With D277A the “effect of a mutation on the interaction” value was “disrupting interaction”.

Variants of: B1
Settings: with Ap2b1, Q9DBG3-2
Sequence of Ap2b1, Q9DBG3-2 (Q9DBG3 other isoform, or with tags, fused parts or gaps): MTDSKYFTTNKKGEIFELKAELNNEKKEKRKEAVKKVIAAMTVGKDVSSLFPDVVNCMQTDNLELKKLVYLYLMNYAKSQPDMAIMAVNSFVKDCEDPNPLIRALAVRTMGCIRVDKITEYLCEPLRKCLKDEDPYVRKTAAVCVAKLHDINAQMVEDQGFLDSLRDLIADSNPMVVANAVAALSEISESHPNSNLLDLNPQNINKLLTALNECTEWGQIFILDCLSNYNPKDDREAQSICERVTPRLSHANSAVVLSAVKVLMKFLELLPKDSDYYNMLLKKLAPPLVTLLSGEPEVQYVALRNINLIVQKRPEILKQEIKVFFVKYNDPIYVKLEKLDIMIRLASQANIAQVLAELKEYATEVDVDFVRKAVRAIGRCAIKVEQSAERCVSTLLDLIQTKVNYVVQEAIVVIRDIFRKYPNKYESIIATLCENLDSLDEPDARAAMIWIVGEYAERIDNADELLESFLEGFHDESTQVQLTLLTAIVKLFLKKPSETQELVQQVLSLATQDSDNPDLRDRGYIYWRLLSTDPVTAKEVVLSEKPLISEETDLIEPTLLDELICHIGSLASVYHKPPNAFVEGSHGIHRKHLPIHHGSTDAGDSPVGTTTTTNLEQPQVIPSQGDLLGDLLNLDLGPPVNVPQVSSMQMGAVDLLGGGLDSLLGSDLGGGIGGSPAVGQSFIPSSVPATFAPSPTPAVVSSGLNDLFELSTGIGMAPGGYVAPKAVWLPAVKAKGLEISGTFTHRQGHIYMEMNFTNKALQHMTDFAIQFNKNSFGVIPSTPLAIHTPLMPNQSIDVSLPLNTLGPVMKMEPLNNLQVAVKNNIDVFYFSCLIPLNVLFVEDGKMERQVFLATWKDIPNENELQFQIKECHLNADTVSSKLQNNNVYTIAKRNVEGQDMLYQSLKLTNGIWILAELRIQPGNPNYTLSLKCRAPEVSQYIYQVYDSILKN
S645E was tested, and the “effect of a mutation on the interaction” value was “disrupting interaction”.

Variants of: B1
Settings: with Ap2b1, Q9DBG3-1
Remark: another data set of the same source
With S645E the “effect of a mutation on the interaction” value was “disrupting interaction”.
